Laboratory results taken from patent publication CN101899115A.

Columns and labels:
CD3 (on Jurkat cells) [1] = target: CD3 (on Jurkat cells) (UniProt P07766); experiment: FACS, HIT3a alone on Jurkat cells, FITC anti-mouse IgG
CD19 (on Raji cells) [2] = target: CD19 (on Raji cells) (UniProt P15391); experiment: FACS, HIT19a alone on Raji cells, FITC anti-mouse IgG
CD3 (on Jurkat cells) [3] = target: CD3 (on Jurkat cells) (UniProt P07766); experiment: FACS competition on Jurkat cells: ds-Diabody mixed with competitor HIT3a, HIT3a detected with FITC anti-mouse IgG
CD19 (on Raji cells) [4] = target: CD19 (on Raji cells) (UniProt P15391); experiment: FACS competition on Raji cells: ds-Diabody mixed with competitor HIT19a, HIT19a detected with FITC anti-mouse IgG

Which 细胞结合阳性率 (CD3 (on Jurkat cells) [1]) does the source give for 抗CD3鼠源性单克隆抗体HIT3a (antibody) here?
The 细胞结合阳性率 was 100%.

With 抗CD19鼠源性单克隆抗体HIT19a (antibody) as the molecule, how does the 细胞结合阳性率 (CD19 (on Raji cells) [2]) read?
Its 细胞结合阳性率 is 100%.

B1: 二硫键稳定的抗CD3-抗CD19微型双功能抗体 (disulfide-stabilized anti-CD3/anti-CD19 diabody) (bispecific antibody)
chain 1: ADIELTQSPAIMSASPGEKVTMTCSASSSVSYMNWYQQKSGTSPKRWIYDTSKLASGVPARFSGSGSGTSYSLTISGMEAEDAATYYCQQWSSNPFTFGCGTKLELKRGGGGSQVQLQQSGAELVRPGSSVKISCKASGYAFSSYWMNWVKQRPGQGLEWIGQIYPGDGDTNYNGKFKGQATLTADKSSSTAYMQLSGLTSEDSAVYFCARKTISSVVDFYFDYWGQGTTLTVSS
chain 2: DIVLTQSPKFMSTSVGDRVSSPAKASQNVGTNVAWYQQKPGQSPKPLIYSATYRNSGVPDRFTGSGSGTDFTLTITNVQSKDLADYFCQQYNRYPYTSGGGTKLEIKRGGGGSQVQLQQSGAELARPGASVKMSCKASGYTFTRYTMHWVKQRPGQCLEWIGYINPSRGYTNYNQKFKDKATLTTDKSSSTAYMELTRLTSEDSAVYYCARYYDDHYSLDYWGQGTTVTVSS
What does the source list for B1?
细胞结合阳性率 (HIT3a signal remaining with ds-Diabody present) (CD3 (on Jurkat cells) [3]): 51.1%; 细胞结合阳性率 (HIT19a signal remaining with ds-Diabody present) (CD19 (on Raji cells) [4]): 63.3%
